{
  "source": "patent US20220034872",
  "tested_on": "GST fusion recombinant OCT4 protein",
  "data": [
    {"substance": "GST fusion recombinant CSNK2A1", "values": [
      {"measurement": "in vitro kinase assay, OCT4 phosphorylation read by SDS-PAGE and western blotting", "result": "in the presence of OCT4 and CSNK2A1, OCT4 phosphorylation was recognized by a phosphorylated antibody"}
    ]}
  ]
}
